Experimental data: PMC11512059 (Nature Communications, 2024)

Target: the molecule itself
Test: cryo-EM structure

Row | Protein | binding result
1 | human connexin 36 gap junction channel, wild type, in lipid nanodiscs containing brain lipids (Cx36_(Nano-BL)-WT) (natural protein, UniProt Q9UKL4 1-321, looked up) MGEWTILERLLEAAVQQHSTMIGRILLTVVVIFRILIVAIVGETVYDDEQTMFVCNTLQPGCNQACYDRAFPISHIRYWVFQIIMVCTPSLCFITYSVHQSAKQRERRYSTVFLALDRDPPESIGGPGGTGGGGSGGGKREDKKLQNAIVNGVLQNTENTSKETEPDCLEVKELTPHPSGLRTASKSKLRRQEGISRFYIIQVVFRNALEIGFLVGQYFLYGFSVPGLYECNRYPCIKEVECYVSRPTEKTVFLVFMFAVSGICVVLNLAELNHLGWRKIKLAVRGAQAKRKSIYEIRNKDLPRVSVPNFGRTQSSDSAYV | binds
2 | human connexin 36 Ala14 deletion variant gap junction channel in lipid nanodiscs containing brain lipids (Cx36_(Nano-BL)-∆A14) (natural protein, UniProt Q9UKL4 1-321, looked up) MGEWTILERLLEAVQQHSTMIGRILLTVVVIFRILIVAIVGETVYDDEQTMFVCNTLQPGCNQACYDRAFPISHIRYWVFQIIMVCTPSLCFITYSVHQSAKQRERRYSTVFLALDRDPPESIGGPGGTGGGGSGGGKREDKKLQNAIVNGVLQNTENTSKETEPDCLEVKELTPHPSGLRTASKSKLRRQEGISRFYIIQVVFRNALEIGFLVGQYFLYGFSVPGLYECNRYPCIKEVECYVSRPTEKTVFLVFMFAVSGICVVLNLAELNHLGWRKIKLAVRGAQAKRKSIYEIRNKDLPRVSVPNFGRTQSSDSAYV | binds
